“And” between values parts separate entries of the source, which are not always exact repeats. Equal entries are not always repeated.

The target in assay [1] is P66 with a c-Myc epitope tag inserted C-terminally to D303 (Borrelia burgdorferi).
Assay [2] has the same target. Put plainly: native gel or EMSA; Blue native PAGE (4-16% Bis-Tris) of membrane B-fractions solubilised in 1.25% digitonin; immunoblot with anti-P66 or anti-c-Myc. For orientation: Mobility shift assays separate free from complexed probe on a gel.
The target of assay [3] is P66 with a c-Myc epitope tag inserted C-terminally to E33 (Borrelia burgdorferi).
For assay [4] the target is unchanged. Put plainly: native gel or EMSA; Blue native PAGE (4-16% Bis-Tris) of membrane B-fractions solubilised in 1.25% digitonin; immunoblot with anti-P66 or anti-c-Myc.

As usually defined, the stoichiometry N is the number of molecules, sites or subunits per partner or assembly. Take “P66 with a c-Myc epitope tag inserted C-terminally to D303 (natural protein)”: the single-channel conductance of the outer membrane fraction in black lipid bilayers (1 M KCl, 20 mV) in assay [1] was below 4 nS. The stoichiometry N in assay [2] was 3 and 5.

Turning to “P66 with a c-Myc epitope tag inserted C-terminally to E33 (natural protein)”, the single-channel conductance of the outer membrane fraction in black lipid bilayers (1 M KCl, 20 mV) in assay [3] is below 4 nS. Further, in assay [4], the stoichiometry N was determined as 3.

Values taken from publication PMC9539438.
